Where no end group is shown, it is not given here. FAM = 5(6)-carboxyfluorescein label; Ahx = NCCCCCC(=O)O

Consider 3 molecules from patent US10080774B2, “Oncolytic adenovirus armed with therapeutic genes” (priority 2002, dated 2018).

The test system of one test is P-MAPK. Kind of test: P-MAPK inhibition. The following applies: U-87 MG cells. It counts as cell-based, human. The source says:
Although the correlation between MAPK activity and Ad-E1A-COX ability to replicate has been shown (Ahmed et al., 2003), the inventors have designed studies to assess the ability of retargeted constructs to replicate in glioma cells with high or low MAPK activity. To characterize the effects of the insertion of the 3′ UTR on E1A expression, inhibitors of kinases signaling, PD98059 (p42/p44 MAPK inhibitor), and for specificity testing: SB203580 (p38 MAPK inhibitor) and LY294002 (PI3K inhibitor) will be used. The inventors will use an isogenic U-87 MG system, containing a stably integrated, IPTG-inducible activated Ha-rasVal12 cDNA (Sheng et al., 2000). This model system is based in cells that only differ in the expression of an activated variant of the Hras oncogene, Ha-rasVal12 (Sheng et al., 2000). The will assess whether PTGS2 3′ UTR-mediated Ad-E1A-COX-Tie2 depends on the P-MAPK pathway. […] The replication capability of Ad-E1A-COX-Tie2 in U87-MG cells untreated and treated with PD98059 (and the control inhibitors) will be assessed. The inventors contemplate that inhibition of P-MAPK activity by PD98059 will greatly reduce the ability Ad-E1A-COX-Tie2 to replicate even with high expression of Ha-rasVal12 induced by IPTG in the isogenic U-87 MG. […]

Test [1] addresses T1, Tie2 (Homo sapiens, UniProt Q02763). Also on record: expressed in transfected cells; host or cells: U-251 MG stably transfected with Tie-2 cDNA (parental U-251 MG is Tie2-negative); also A172 cells with endogenous Tie2. The following applies: Tournaire et al. (2004); cited from earlier work.
The target in test [2] is T1, Tie2. Put plainly: Binding of T4 peptide to Tie2. The following applies: U-251 MG isogenic system and A172. More on the design: expressed in transfected cells; host or cells: U-251 MG stably transfected with Tie-2 cDNA (parental U-251 MG is Tie2-negative); also A172 cells with endogenous Tie2. The source says:
Testing the binding of the proposed Tie2-ligand, T4, the inventors synthesized the peptide linked to FAM signal that was suitable for flow cytometric detection. Peptide was synthesized by automatic solid phase chemistry using Fmoc strategy. The N-terminal aminohexanoic acid was labeled by coupling 5(6)-carboxyfluorescein. Peptides were purified to >98% purity by reverse phase HPLC.

Test [3] has as its system U-87 MG cells. Kind of test: Glioma cell adhesion assay. It is filed as cell-based, human. As to conditions: 1 hr. The source says:
It was reported that Ang1 promotes adhesion of Tie2+ hematopoietic stem cells to fibronectin and collagen and also promotes the interaction of endothelial cells with surrounding mesenchymal cells and the extracellular matrix (Davis et al., 1996; Suri et al., 1996; Arai et al., 2004). Therefore, the inventors analyzed the effects of Ang1/Tie2 signalling on glioma adhesion. Briefly, 96-well dishes were coated for 2 hr at room temperature (RT) with rAng1 diluted in PBS. Wells were then blocked for 30 min at RT with 0.5% heat-inactivated BSA in PBS (80° C. for 10 min) and washed three times with PBS before adding cells. U-87 MG cells were harvested and resuspended. 30,000 cells were seeded/well, and the plate was incubated at 37° C. for 1 hr. Nonadherent cells were removed and attached cells were fixed in 4% paraformaldehyde and stained with 0.2% crystal violet. Cells were solubilized in DMSO and absorbance of each well was read at 570 nm. […] Similar results were obtained when Tie2− and Tie2+U-251 MG were used. In addition, the possibility of Ang1-induced adhesion has been assessed. For that study, the wells were coated with several ECM and then, U-87 MG cells that were previously stimulated with Ang1 (BSA control), were plated on those wells. […]

In test [4] the test system is U-87 MG cells. Put plainly: Chemotactic migration assay (Transwell). It counts as cell-based, human. The following applies: 24 h. As for the experimental part: Witzenbichler et al. (1998) have reported the chemotactic properties of Ang1 for Tie2-endothelial cells. A chemotaxis assay was performed in the presence or absence of Ang1. Incubation with various concentrations of Ang1 enhanced chemotactic migration of U-87 MG cells. Migration assay was performed as described previously (Gomez-Manzano, 2003). Briefly, the lower surface of the filter was coated with gelatin. 600 μl of DMEM/F-12 (1:1) containing rAng1 and 0.1% BSA was added into lower compartment of the Transwell chamber, and 100 μl of cell suspension was added in the upper chamber. After 24 h of incubation, the filters were fixed, stained with H/E, and the cells on the lower surface of the filters were counted at 400× with Zeiss microscope. Assays were performed in triplicate. […] To distinguish between chemotactic and chemokinetics effect of Ang1 on U-87 MG, an analysis was performed where similar doses of Ang1 were present above and below the filter. Significant migration was observed only when a concentration gradient of Ang1 was established, a finding typical of factors inducing chemotaxis.

Another test has as its system Dok-R. Kind of test: Tie2 association with Dok-R. It counts as cell-based, human. The following applies: stable transfected Tie2 U-251 MG. The source says: Tie2 can also recruit additional signaling molecules that participate in cellular pathways that affect the shape and migratory properties of cells. In this regard, the Tie2-associated docking protein Dok-R can potentiate NCK-dependent endothelial cell migration in response to Ang1 (Master et al., 2001; Jones et al., 2003).

Another test deals with Akt. Kind of test: Akt phosphorylation. It is filed as cell-based, human. As to conditions: U-87 MG, 100-500 ng/ml. The source says:
Consistant with previous reports, Ang-1/Tie signaling in endothelial cells in vitro involves PI3K/Akt activation (DeBusk et al., 2004; Papapetropoulos et al., 2000).

The test system of another test is Ras. Put plainly: Ras activity (Ras-GTP). It counts as cell-based, human. As to conditions: U-87 MG. As for the experimental part: In addition, the inventors have obtained data regarding the upstream effector of p42/p44 MAPK, Ras, by analyzing Ras activity in Ang1-estimulated U-87 MG cells. Ras activity, which detects active GTP-bound Ras, was performed by immunoprecipitation of Ras-Raf complexes (contains only active Ras), and consequent western blotting detection of Ras-GTP molecule.

The test system of test [5] is ERK1 (p44MAPK) and ERK2 (p42MAPK). Kind of test: ERK1/2 (p42/p44 MAPK) phosphorylation, Western blot. It is filed as cell-based, human. As for the experimental part: HUVEC and U-87 MG cells were mock-, AdCMV- or AdAng-2-Infected. 24 hours later they were overnights serum-starved, and then stimulated with […] for 10 min. Cell lysates were collected and analyzed by Western blotting for expression of phospho- and total p42/p44 MAPK. Ang-1 increased ERK 1/2 phosphorylation what was inhibited by the viral-transduced Ang-2.
The Ang-2/Ang-1/Tie2 system has been studied in endothelial cells, and different pathways have been reported as involved in the cascade signaling; these include phosphotidylinositol […] (PI3-K), focal adhesion kinase, Raf/Ras/mitogen-activated protein kinase (MAPK), and Dok-R/Dok-2/Nck/Pak (Yoon et al., 2003). […] These cascades modulate protein synthesis and/or transcriptional activation. […] To measure MAPK activity, the inventors measured the degree of phosphorylation of two MAPKs, ERK1 (p44MAPK) and ERK2 (p42MAPK).
The Ang-2/Ang1/Tie2 system has been studied in endothelial cells, and different pathways have been reported as involved in the cascade signaling. […] MAPK activity was measured by the degree of phosphorylation of two MAPKs, ERK1 (p44^MAPK) and ERK2 (p42^MAPK).
On the technique in general: A western blot detects proteins with antibodies after separation by electrophoresis.

The target in test [6] is T1, Tie2. Kind of test: Tie2 phosphorylation, immunoprecipitation. It counts as cell-based. As to conditions: U-87 MG, 500 ng/ml, 10 min. As for the experimental part: To explore the regulation of Tie2 signaling by Angs in U-87 MG cells, Tie2 was immunoprecipitated from membrane fractions of U-87 MG cells treated with rAng1 (500 ng/ml) for 10 min, and phosphorylation of Tie2 was addressed using anti-phosphotyrosine antibody.

T1 sequence (Q02763 23-1124): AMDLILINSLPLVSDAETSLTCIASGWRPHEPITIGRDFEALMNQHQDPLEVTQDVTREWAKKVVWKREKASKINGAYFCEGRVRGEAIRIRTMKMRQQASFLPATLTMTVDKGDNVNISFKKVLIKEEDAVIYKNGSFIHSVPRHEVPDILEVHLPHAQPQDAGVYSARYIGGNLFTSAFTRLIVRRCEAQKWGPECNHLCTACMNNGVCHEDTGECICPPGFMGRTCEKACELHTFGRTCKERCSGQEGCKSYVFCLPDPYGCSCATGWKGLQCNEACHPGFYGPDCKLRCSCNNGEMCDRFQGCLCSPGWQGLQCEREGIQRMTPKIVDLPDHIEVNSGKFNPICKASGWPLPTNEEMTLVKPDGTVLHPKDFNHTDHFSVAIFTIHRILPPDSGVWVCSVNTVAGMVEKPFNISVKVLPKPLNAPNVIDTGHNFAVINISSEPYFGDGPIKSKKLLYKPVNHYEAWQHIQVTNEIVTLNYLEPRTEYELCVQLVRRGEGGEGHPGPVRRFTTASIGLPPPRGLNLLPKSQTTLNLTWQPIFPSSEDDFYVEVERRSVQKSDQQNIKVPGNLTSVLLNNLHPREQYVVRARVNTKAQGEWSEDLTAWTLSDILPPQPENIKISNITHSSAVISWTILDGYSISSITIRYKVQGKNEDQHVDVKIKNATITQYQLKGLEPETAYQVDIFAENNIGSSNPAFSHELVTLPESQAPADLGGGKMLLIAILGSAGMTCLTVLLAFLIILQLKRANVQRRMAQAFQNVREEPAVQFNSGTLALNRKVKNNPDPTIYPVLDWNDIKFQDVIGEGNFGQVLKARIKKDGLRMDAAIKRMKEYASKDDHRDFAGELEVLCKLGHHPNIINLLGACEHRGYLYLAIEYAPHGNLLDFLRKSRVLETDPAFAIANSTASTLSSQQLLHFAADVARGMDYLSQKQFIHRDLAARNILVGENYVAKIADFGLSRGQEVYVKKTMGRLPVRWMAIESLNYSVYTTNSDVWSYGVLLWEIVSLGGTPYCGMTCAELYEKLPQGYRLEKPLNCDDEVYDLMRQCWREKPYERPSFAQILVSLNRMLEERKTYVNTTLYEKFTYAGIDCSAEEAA

As to `COc1cccc(-c2cc(=O)c3ccccc3o2)c1N` [PD98059], the P-MAPK expression entry in the test with P-MAPK is “effectively inhibited P-MAPK expression”.
In the case of “NLLMAAS ({FAM-Ahx}-NLLMAAS; also: 5(6)-carboxyfluorescein label (site not given here)) [T4]”, the “binding of Ang1 and Ang-2 to the Tie2 receptor” value with Tie2 [1] is reported as “completely abolished”. Also, the “binding to cell membrane by flow cytometry” value in the test with Tie2 [2] was “binds preferentially to the membrane of cells overexpressing Tie2”.

B1: rhAng-1: recombinant angiopoietin-1 protein (protein)
chain: SNQRRSPENSGRRYNRIQHGQCAYTFILPEHDGNCRESTTDQYNTNALQRDAPHVEPDFSSQKLQHLEHVMENYTQWLQKLENYIVENMKSEMAQIQQNAVQNHTATMLEIGTSLLSQTAEQTRKLTDVETQVLNQTSRLEIQLLENSLSTYKLEKQLLQQTNEILKIHEKNSLLEHKILEMEGKHKEELDTLKEEKENLQGLVTRQTYIIQELEKQLNRATTNNSVLQKQQLELMDTVHNLVNLCTKEGVLLKGGKREEEKPFRDCADVYQAGFNKSGIYTIYINNMPEPKKVFCNMDVNGGGWTVIQHREDGSLDFQRGWKEYKMGFGNPSGEYWLGNEFIFAITSQRQYMLRIELMDWEGNRAYSQYDRFHIGNEKQNYRLYLKGHTGTAGKQSSLILHGADFSTKDADNDNCMCKCALMLTGGWWFDACGPSNLNGMFYTAGQNHGKLNGIKWHYFKGPSYSLRSTTMMIRPLDF
In the case of B1, in the test on U-87 MG cells [3], the “adhesion of U-87 cells to Ang1-coated wells” value is given as “increasing adhesion properties”. Besides, the chemotactic migration result with U-87 MG cells [4] is recorded as “significant increase in directed migration”. Further, in the test on Dok-R, the “Tie2 association with Dok-R” value is listed as “results in Tie2 association with Dok-R protein”. Moreover, the Akt phosphorylation result in the test with Akt is given as “did not modify the pattern of phosphorylation of the Akt molecule”. Moreover, in the test on Ras, the Ras activity entry is “Ras activity increases”. The ERK1/2 phosphorylation result in test [5] (HU-VEC-C endothelial cells, 100 ng/ml) is given as “increased ERK1/2 phosphorylation”; in test [5] (U-87 MG), “increased ERK1/2 phosphorylation”. In the test with Tie2 [6], the Tie2 phosphorylation result was “induced phosphorylation of Tie2”.
